Starred links: 1 amine or outer side, 2 acyl side, 3 side chain; linkers in the order of their positions; H or OH if unused. Positions of bridges follow the written chain, without caps; N, C: chain ends. Non-standard residues stand in square brackets, D forms with d. Primed or numbered codes have the meaning given here. *: point of attachment. MeKCOpipzaa″ = (2S)-6-{[4-(carboxymethyl)piperazine-1-carbonyl]amino}-2-(methylamino)hexanoic acid, CN([C@@H](CCCCNC(=O)N1CCN(CC(=O)[*:3])CC1)C(=O)[*:2])[*:1]; DOTA‑Lu = DOTA-lutetium(175) amide on the side-chain amine, O=C([O-])CN1CCN(CC(=O)[O-])CCN(CC(=O)*)CCN(CC(=O)[O-])CC1.[175Lu+3]; MeHseMe″ = (2S)-4-methoxy-2-(methylamino)butanoic acid (N-methyl-O-methyl-L-homoserine), COCC[C@@H](C(=O)[*:2])N(C)[*:1]; F4aao = 4-(carboxymethoxy)-L-phenylalanine, O=C([C@H](Cc1ccc(OCC(=O)[*:3])cc1)N[*:1])[*:2]; F4aao(4) = 4-(carboxymethoxy)phenylalanine, O=C([C@H](Cc1ccc(OCC(=O)[*:3])cc1)N[*:1])[*:2]; MeHseMe(5) = N-methyl-O-methyl-homoserine, COCC[C@@H](C(=O)[*:2])N(C)[*:1]; MeHseMe = N-methyl-O-methyl-L-homoserine, COCC[C@@H](C(=O)[*:2])N(C)[*:1]; Thr(Me)(3) = TMe, O-methyl-L-threonine, CO[C@H](C)[C@H](N[*:1])C(=O)[*:2]; TMe = O-methyl-L-threonine, CO[C@H](C)[C@H](N[*:1])C(=O)[*:2]; TMe″ = O-methyl-threonine, CO[C@H](C)[C@H](N[*:1])C(=O)[*:2]; NMeAla(isoquinolin-7-yl) = CN[C@@H](Cc1ccc2ccncc2c1)C(=O)O; 3Pal(6-Ph) = N[C@@H](Cc1ccc(-c2ccccc2)nc1)C(=O)O; Phe(4-COOH) = N[C@@H](Cc1ccc(C(=O)O)cc1)C(=O)O; NMeI = CC[C@H](C)[C@H](NC)C(=O)O; NMeQ = CN[C@@H](CCC(N)=O)C(=O)O; NMeK = CN[C@@H](CCCCN)C(=O)O; NMeC = CN[C@@H](CS)C(=O)O
B1: Macrocyclic peptide of Example 2-27 (SEQ ID No. 35) (peptide)
peptide: KQDQFTIFFGXC
modifications: MeK-MeQ-D-MeQ-F4COO-TMe-I-F4aao-MeNal27N-G-3Py6Ph-MeC-NH2; thioether ring from N-terminal acetyl to MeC12
B2: Macrocyclic peptide of Example 2-24 (SEQ ID No. 58) (peptide)
peptide: {CH2CO}-[MeKCOpipzaa″][MeHseMe]D[NMeQ][Phe(4-COOH)][Thr(Me)(3)]IY[NMeAla(isoquinolin-7-yl)]G[3Pal(6-Ph)][NMeC]-NH2
modifications: thioether N-12
SMILES: CC[C@H](C)[C@@H]1NC(=O)[C@H]([C@@H](C)OC)NC(=O)[C@H](Cc2ccc(C(=O)O)cc2)NC(=O)[C@H](CCC(N)=O)N(C)C(=O)[C@H](CC(=O)O)NC(=O)[C@H](CCOC)N(C)C(=O)[C@H](CCCCNC(=O)N2CCN(CC(=O)O)CC2)N(C)C(=O)CSC[C@@H](C(N)=O)N(C)C(=O)[C@H](Cc2ccc(-c3ccccc3)nc2)NC(=O)CNC(=O)[C@H](Cc2ccc3ccncc3c2)N(C)C(=O)[C@H](Cc2ccc(O)cc2)NC1=O
B3: Macrocyclic peptide of Example 2-60 (SEQ ID No. 62) (peptide)
peptide: {CH2CO}-[NMeK][NMeI]D[NMeQ][Phe(4-COOH)][TMe]IY[NMeAla(isoquinolin-7-yl)]G[3Pal(6-Ph)][NMeC]-NH2
modifications: thioether N-12
SMILES: CC[C@H](C)[C@@H]1NC(=O)[C@H]([C@@H](C)OC)NC(=O)[C@H](Cc2ccc(C(=O)O)cc2)NC(=O)[C@H](CCC(N)=O)N(C)C(=O)[C@H](CC(=O)O)NC(=O)[C@H]([C@@H](C)CC)N(C)C(=O)[C@H](CCCCN)N(C)C(=O)CSC[C@@H](C(N)=O)N(C)C(=O)[C@H](Cc2ccc(-c3ccccc3)nc2)NC(=O)CNC(=O)[C@H](Cc2ccc3ccncc3c2)N(C)C(=O)[C@H](Cc2ccc(O)cc2)NC1=O
B4: Macrocyclic peptide of Example 2-57 (SEQ ID No. 1) (peptide)
peptide: {CH2CO}-[NMeK][NMeI]D[NMeQ][Phe(4-COOH)]IIY[NMeAla(isoquinolin-7-yl)]G[3Pal(6-Ph)][NMeC]-NH2
modifications: thioether N-12
SMILES: CC[C@H](C)[C@@H]1NC(=O)[C@H](Cc2ccc(C(=O)O)cc2)NC(=O)[C@H](CCC(N)=O)N(C)C(=O)[C@H](CC(=O)O)NC(=O)[C@H]([C@@H](C)CC)N(C)C(=O)[C@H](CCCCN)N(C)C(=O)CSC[C@@H](C(N)=O)N(C)C(=O)[C@H](Cc2ccc(-c3ccccc3)nc2)NC(=O)CNC(=O)[C@H](Cc2ccc3ccncc3c2)N(C)C(=O)[C@H](Cc2ccc(O)cc2)NC(=O)[C@H]([C@@H](C)CC)NC1=O
B5: Macrocyclic peptide of Example 10-1 (SEQ ID No. 34) (peptide)
peptide: {CH2CO}-[NMeK](His)[NMeI]D[NMeQ][Phe(4-COOH)]II[F4aao(4)][NMeAla(isoquinolin-7-yl)]G[3Pal(6-Ph)][NMeC]-NH2
modifications: thioether N-12
SMILES: CC[C@H](C)[C@@H]1NC(=O)[C@H](Cc2ccc(C(=O)O)cc2)NC(=O)[C@H](CCC(N)=O)N(C)C(=O)[C@H](CC(=O)O)NC(=O)[C@H]([C@@H](C)CC)N(C)C(=O)[C@H](CCCCNC(=O)[C@@H](N)Cc2c[nH]cn2)N(C)C(=O)CSC[C@@H](C(N)=O)N(C)C(=O)[C@H](Cc2ccc(-c3ccccc3)nc2)NC(=O)CNC(=O)[C@H](Cc2ccc3ccncc3c2)N(C)C(=O)[C@H](Cc2ccc(OCC(=O)O)cc2)NC(=O)[C@H]([C@@H](C)CC)NC1=O
B6: Macrocyclic peptide of Example 2-59 (SEQ ID No. 63) (peptide)
peptide: {CH2CO}-[NMeK][MeHseMe″]D[NMeQ][Phe(4-COOH)][TMe]I[F4aao][NMeAla(isoquinolin-7-yl)]G[3Pal(6-Ph)][NMeC]-NH2
modifications: thioether N-12
SMILES: CC[C@H](C)[C@@H]1NC(=O)[C@H]([C@@H](C)OC)NC(=O)[C@H](Cc2ccc(C(=O)O)cc2)NC(=O)[C@H](CCC(N)=O)N(C)C(=O)[C@H](CC(=O)O)NC(=O)[C@H](CCOC)N(C)C(=O)[C@H](CCCCN)N(C)C(=O)CSC[C@@H](C(N)=O)N(C)C(=O)[C@H](Cc2ccc(-c3ccccc3)nc2)NC(=O)CNC(=O)[C@H](Cc2ccc3ccncc3c2)N(C)C(=O)[C@H](Cc2ccc(OCC(=O)O)cc2)NC1=O
B7: Macrocyclic peptide of Example 2-4 (SEQ ID No. 7) (peptide)
peptide: {CH2CO}-[NMeK](Ac)[NMeI]D[NMeQ][Phe(4-COOH)]IIY[NMeAla(isoquinolin-7-yl)]G[3Pal(6-Ph)][NMeC]-NH2
modifications: thioether N-12
SMILES: CC[C@H](C)[C@@H]1NC(=O)[C@H](Cc2ccc(C(=O)O)cc2)NC(=O)[C@H](CCC(N)=O)N(C)C(=O)[C@H](CC(=O)O)NC(=O)[C@H]([C@@H](C)CC)N(C)C(=O)[C@H](CCCCNC(C)=O)N(C)C(=O)CSC[C@@H](C(N)=O)N(C)C(=O)[C@H](Cc2ccc(-c3ccccc3)nc2)NC(=O)CNC(=O)[C@H](Cc2ccc3ccncc3c2)N(C)C(=O)[C@H](Cc2ccc(O)cc2)NC(=O)[C@H]([C@@H](C)CC)NC1=O
B8: Macrocyclic peptide of Example 10-2 (SEQ ID No. 41) (peptide)
peptide: {CH2CO}-[NMeK](dF)[NMeI]D[NMeQ][Phe(4-COOH)]II[F4aao(4)][NMeAla(isoquinolin-7-yl)]G[3Pal(6-Ph)][NMeC]-NH2
modifications: thioether N-12
SMILES: CC[C@H](C)[C@@H]1NC(=O)[C@H](Cc2ccc(C(=O)O)cc2)NC(=O)[C@H](CCC(N)=O)N(C)C(=O)[C@H](CC(=O)O)NC(=O)[C@H]([C@@H](C)CC)N(C)C(=O)[C@H](CCCCNC(=O)[C@H](N)Cc2ccccc2)N(C)C(=O)CSC[C@@H](C(N)=O)N(C)C(=O)[C@H](Cc2ccc(-c3ccccc3)nc2)NC(=O)CNC(=O)[C@H](Cc2ccc3ccncc3c2)N(C)C(=O)[C@H](Cc2ccc(OCC(=O)O)cc2)NC(=O)[C@H]([C@@H](C)CC)NC1=O
B9: Macrocyclic peptide of Example B1 (SEQ ID No. 45) (peptide)
peptide: {CH2CO}-[NMeK][MeHseMe″]D[NMeQ][Phe(4-COOH)][TMe]IY[NMeAla(isoquinolin-7-yl)]G[3Pal(6-Ph)][NMeC]-NH2
modifications: thioether N-12
SMILES: CC[C@H](C)[C@@H]1NC(=O)[C@H]([C@@H](C)OC)NC(=O)[C@H](Cc2ccc(C(=O)O)cc2)NC(=O)[C@H](CCC(N)=O)N(C)C(=O)[C@H](CC(=O)O)NC(=O)[C@H](CCOC)N(C)C(=O)[C@H](CCCCN)N(C)C(=O)CSC[C@@H](C(N)=O)N(C)C(=O)[C@H](Cc2ccc(-c3ccccc3)nc2)NC(=O)CNC(=O)[C@H](Cc2ccc3ccncc3c2)N(C)C(=O)[C@H](Cc2ccc(O)cc2)NC1=O
notes: also called macrocyclic peptide 2b

The binders below were run against T1, Human Glypican3-Fc (ACRO Biosystems, GP3-H5258) (human, UniProt P51654 25-559) (assay: SPR (Biacore T200), Method B-3: Glypican3-Fc captured on Protein A chip, peptide as analyte).
T1 construct: Bought fusion protein, captured in Methods B-2, B-3 and B-4; Catalogue number is printed only in Method B-2; not shown: Fc part of the bought fusion
Experimental: A Protein A sensor chip (Cytiva) was inserted into a Biacore T200 (Cytiva), priming was performed three times with a running buffer: HBS-P+, pH 7.4 (Cytiva), and equilibration was carried out at a flow rate of 30 μL/min. Glypican3-Fc was allowed to react for 60 seconds at a flow rate of 10 μL/min. After capturing human Glypican3-Fe, a peptide solution prepared to 10 mM in DMSO solution was diluted with a running buffer to a final concentration of 10 μM. […] Using the above samples, peptide kinetics for Glypican3 was obtained by SPR measurement. Kinetics evaluation of Glypican3 was performed by SPR measurements at a flow rate of 10 LL/min, setting the association time to 120 seconds and the disassociation time to 600 seconds.
The obtained data by Method B-1, Method B-2, Method B-3 and Method B-4 were analyzed by follow. Single Cycle Kinetics was used as the kinetics evaluation model, and curve fitting was performed using Biacore T200 Evaluation Software Version 3.0 (Cytiva).

Row | Binder | Kd [nM]
1 | Ac-[NMeK](DOTA‑Lu)[NMeI]D[NMeQ][Phe(4-COOH)][TMe″]IY[NMeAla(isoquinolin-7-yl)]G[3Pal(6-Ph)][NMeC]-NH2 (bridge N-12; not fully specified (bridges); also: DOTA-Lu: cold Lu-175 complex) [Lu-C-62] | 0.15
2 | B1 | 1.1
3 | Ac-[NMeK](DOTA‑Lu)[MeHseMe(5)]D[NMeQ][Phe(4-COOH)]IIY[NMeAla(isoquinolin-7-yl)]G[3Pal(6-Ph)][NMeC]-NH2 (bridge N-12; not fully specified (bridges); also: cold Lu-175 chelated by DOTA) [Lu-C-72] | 0.36
4 | B2 | 0.5
5 | B3 | 0.23
6 | Ac-[NMeK](DOTA‑Lu)[NMeI]D[NMeQ][Phe(4-COOH)]II[F4aao(4)][NMeAla(isoquinolin-7-yl)]G[3Pal(6-Ph)][NMeC]-NH2 (bridge N-12; not fully specified (bridges); also: DOTA-Lu: cold Lu-175 complex) [Lu-C-64] | 0.53
7 | B4 | 0.17
8 | B5 | 0.51
9 | B6 | 1.55
10 | B7 | 0.3
11 | B8 | 0.54
12 | B9 | 0.2

Source: patent US20260241049A1, “Radiopharmaceutical Compositions Targeting Glypican-3 and Uses Thereof” (RayzeBio, Inc., priority 2023, published 2026)
